From PMC2807882, “Conservation of DNA-binding specificity and oligomerisation properties within the p53 family” come the findings set out here.

In one series the target is T1, ΔNp63γ (Homo sapiens, UniProt Q9H3D4-6 1-393).
T1 sequence: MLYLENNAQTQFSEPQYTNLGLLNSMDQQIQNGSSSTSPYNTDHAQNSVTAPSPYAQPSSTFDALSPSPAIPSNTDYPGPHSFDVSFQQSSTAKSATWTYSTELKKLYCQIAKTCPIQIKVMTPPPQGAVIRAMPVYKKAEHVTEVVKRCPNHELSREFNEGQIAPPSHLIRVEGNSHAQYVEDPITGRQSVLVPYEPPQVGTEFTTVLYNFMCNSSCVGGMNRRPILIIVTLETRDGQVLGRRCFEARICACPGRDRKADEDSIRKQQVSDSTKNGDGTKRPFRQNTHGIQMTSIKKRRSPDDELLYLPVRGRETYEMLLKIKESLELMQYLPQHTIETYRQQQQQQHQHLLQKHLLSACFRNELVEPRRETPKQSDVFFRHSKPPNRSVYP
Nature of the series: anisotropy competition; 25 mM NaPi, 225 mM NaCl, 10% v/v glycerol, 5 mM DTT, 0.2 mg/mL BSA, 22°C; 20 nM labelled DNA; pH not stated for the binding assay. To be noted: protein: recombinant; tags: N-terminal 6xHis-lipoyl-TEV tag, cleaved; chain copies: 4.

The next series concerns the target T2, Drp53 (Danio rerio, UniProt P79734 1-373).
T2 sequence: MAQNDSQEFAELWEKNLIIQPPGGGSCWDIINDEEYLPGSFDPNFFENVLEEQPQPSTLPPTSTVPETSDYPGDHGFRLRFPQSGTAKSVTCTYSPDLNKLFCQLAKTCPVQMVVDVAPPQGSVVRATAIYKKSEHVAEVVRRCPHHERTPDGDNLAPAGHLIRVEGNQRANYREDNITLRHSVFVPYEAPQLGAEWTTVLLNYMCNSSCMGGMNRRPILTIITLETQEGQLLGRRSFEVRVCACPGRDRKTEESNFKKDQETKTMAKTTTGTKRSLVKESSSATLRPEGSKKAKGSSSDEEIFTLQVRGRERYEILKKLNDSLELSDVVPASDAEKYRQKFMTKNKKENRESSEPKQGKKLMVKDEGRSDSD
Nature of the series: fluorescence anisotropy direct titration; 25 mM sodium phosphate (purification buffer pH 7.2), 225 mM NaCl, 10% v/v glycerol, 5 mM DTT, 0.2 mg/mL BSA, 22 C. The conditions noted are these: protein: recombinant; tags: N-terminal 6xHis-lipoyl-TEV tag, cleaved; chain copies: 4; label: 5'-Alexa488.

In a further series the target is T3, ΔNp63α (Homo sapiens, UniProt Q9H3D4-2 1-586).
T3 sequence: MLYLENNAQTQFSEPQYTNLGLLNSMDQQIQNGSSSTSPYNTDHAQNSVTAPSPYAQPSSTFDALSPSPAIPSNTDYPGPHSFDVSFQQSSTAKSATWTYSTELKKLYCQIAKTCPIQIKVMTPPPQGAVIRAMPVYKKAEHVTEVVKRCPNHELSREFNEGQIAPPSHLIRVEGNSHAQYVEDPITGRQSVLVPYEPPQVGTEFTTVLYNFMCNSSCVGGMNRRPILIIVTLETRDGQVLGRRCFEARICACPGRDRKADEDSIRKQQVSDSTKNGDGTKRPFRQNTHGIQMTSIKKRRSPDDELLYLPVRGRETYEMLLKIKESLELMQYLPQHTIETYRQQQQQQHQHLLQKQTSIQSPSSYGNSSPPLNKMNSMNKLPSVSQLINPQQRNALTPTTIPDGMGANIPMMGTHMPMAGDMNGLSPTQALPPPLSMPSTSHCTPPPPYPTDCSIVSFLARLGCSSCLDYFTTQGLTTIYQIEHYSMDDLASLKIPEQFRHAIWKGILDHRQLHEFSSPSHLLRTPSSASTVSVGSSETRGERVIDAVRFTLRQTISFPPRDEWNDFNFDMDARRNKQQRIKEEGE
The description is as above. To be noted: protein: recombinant; tags: N-terminal 6xHis-lipoyl-TEV tag, cleaved; chain copies: 4; label: 5'-Alexa488.

The next series deals with T4, ΔNp73β (Homo sapiens, UniProt O15350-9 1-450).
T4 sequence: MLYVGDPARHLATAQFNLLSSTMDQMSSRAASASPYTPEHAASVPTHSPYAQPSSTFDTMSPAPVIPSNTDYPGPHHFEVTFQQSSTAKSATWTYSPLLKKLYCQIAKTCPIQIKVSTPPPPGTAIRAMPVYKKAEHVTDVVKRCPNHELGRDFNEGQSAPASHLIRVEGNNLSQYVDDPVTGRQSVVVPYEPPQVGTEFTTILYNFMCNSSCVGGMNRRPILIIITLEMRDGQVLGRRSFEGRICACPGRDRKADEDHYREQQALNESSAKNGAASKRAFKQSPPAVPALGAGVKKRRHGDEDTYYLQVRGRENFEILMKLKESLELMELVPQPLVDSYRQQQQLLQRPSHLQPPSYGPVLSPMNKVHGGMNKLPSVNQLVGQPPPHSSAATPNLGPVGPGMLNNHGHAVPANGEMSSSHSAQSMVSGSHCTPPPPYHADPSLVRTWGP
Described as above. The conditions noted are these: protein: recombinant; tags: N-terminal 6xHis-lipoyl-TEV tag, cleaved; chain copies: 4; label: 5'-Alexa488.

The next series addresses Xlp53 (Xenopus laevis, UniProt Q7T1D0 1-362). The series is described as above. To be noted: protein: recombinant; tags: N-terminal 6xHis-lipoyl-TEV tag, cleaved; chain copies: 4; label: 5'-Alexa488.
A further series deals with T5, ΔNp63β (Homo sapiens, UniProt Q9H3D4-4 1-461).
T5 sequence: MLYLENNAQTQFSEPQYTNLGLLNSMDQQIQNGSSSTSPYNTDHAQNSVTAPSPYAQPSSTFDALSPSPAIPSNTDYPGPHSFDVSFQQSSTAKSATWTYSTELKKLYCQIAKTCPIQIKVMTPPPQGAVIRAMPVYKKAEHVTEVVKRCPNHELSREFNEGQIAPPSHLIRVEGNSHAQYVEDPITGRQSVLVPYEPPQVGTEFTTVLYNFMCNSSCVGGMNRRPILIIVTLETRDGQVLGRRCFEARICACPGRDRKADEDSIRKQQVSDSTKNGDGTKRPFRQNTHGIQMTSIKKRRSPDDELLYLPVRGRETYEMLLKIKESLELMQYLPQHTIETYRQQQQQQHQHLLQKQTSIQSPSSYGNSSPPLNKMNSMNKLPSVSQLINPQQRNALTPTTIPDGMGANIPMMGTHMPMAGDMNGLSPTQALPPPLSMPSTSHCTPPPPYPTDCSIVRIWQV
The series is described as above. The conditions noted are these: protein: recombinant; tags: N-terminal 6xHis-lipoyl-TEV tag, cleaved; chain copies: 4; label: 5'-Alexa488.

Xlp53, sequence (Q7T1D0 entry or part of it): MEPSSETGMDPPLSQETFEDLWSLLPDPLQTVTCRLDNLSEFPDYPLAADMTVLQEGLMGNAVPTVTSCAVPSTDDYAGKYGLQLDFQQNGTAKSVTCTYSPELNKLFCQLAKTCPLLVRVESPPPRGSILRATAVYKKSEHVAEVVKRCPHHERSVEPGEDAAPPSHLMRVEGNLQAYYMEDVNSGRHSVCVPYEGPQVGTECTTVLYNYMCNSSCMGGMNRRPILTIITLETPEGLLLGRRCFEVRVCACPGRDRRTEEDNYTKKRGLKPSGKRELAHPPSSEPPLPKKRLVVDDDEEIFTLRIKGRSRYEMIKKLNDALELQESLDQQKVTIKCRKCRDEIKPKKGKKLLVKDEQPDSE

B1: Ref competitor (dsDNA)
DNA 1: CGCGGACATGTCCGGACATGTCCCGC
DNA 2: GCGGGACATGTCCGGACATGTCCGCG
In general, Kd refers to the free concentration of one partner at which half of the binding sites on the other are occupied at equilibrium, for simple one-to-one binding. For B1, the Kd with ΔNp63γ is -7.48 log10(M).

B2: Ref_Alexa488 (dsDNA)
DNA 1: GGACATGTCCGGACATGTCC
DNA 2: GGACATGTCCGGACATGTCC
For B2, the Kd in the series with Drp53 came to 63.1 nM; with ΔNp63α, 75.9 nM; with ΔNp73β, 55 nM; with Xlp53, 47.9 nM; in the series with ΔNp63β, 74.1 nM.
